Measurements published in US20240287178A1 (YALE UNIVERSITY, published 2024).
Blank lines part the entries; values can stand above or below the binder they belong to.

What was measured:
mouse Unc5B [1] = target: T1, mouse Unc5B (mouse, UniProt Q8K1S3 27-945); assay: co-immunoprecipitation with the anti-Unc5B antibodies from Bend.3 cells, western blot for Claudin5
T1 construct: whole, on cells; Endogenous receptor, on cells or in brain lysates; also called Unc5B (Bend.3 cells, mouse brain)

[2] = target: T2, Unc5B (analyte or ligand of the Biacore analysis; species and construct not stated); assay: Biacore (SPR); format not stated
T2 construct: The phage selection used a recombinant rat Unc5B-ECD Fc fusion (R&D Systems)

Rat UNC5B = target: T3, Rat UNC5B (rat, UniProt O08722); assay: Biacore
T3 construct: a recombinant rat Unc5B-ECD Fc fusion protein (R&D systems) only for the phage selection; Kept apart from m11, which is the GFP fusion expressed in PAECs; also called rat Unc5B (Biacore analysis)

human Unc5B = target: T4, human Unc5B (human, UniProt Q8IZJ1 27-945); assay: Biacore
T4 construct: whole, on cells; also called Unc5B (HUVEC)

mouse Unc5B [3] = target: T1, mouse Unc5B; assay: immunoprecipitation from Bend.3 cells after antibody treatment, western blot for Unc5B
[4] = target: T5, rat Unc5B coupled to GFP, in transfected porcine aortic endothelial cells (PAECs) (rat, UniProt O08722 27-945); assay: immunoprecipitation from PAECs transfected with rat Unc5B-GFP, 1 h after antibody treatment
T5 construct: whole, on cells; also called rat Unc5B-GFP; not shown: GFP
Excerpt: Light (LC) and Heavy (HC) chains were sequenced for each antibody (FIGS. 1A-1D and 2A-2D).

binding result (mouse Unc5B [1]): binds
B1: mouse Claudin5 (other, UniProt O54942 1-218, looked up)
chain: MGSAALEILGLVLCLVGWVGLILACGLPMWQVTAFLDHNIVTAQTTWKGLWMSCVVQSTGHMQCKVYESVLALSAEVQAARALTVGAVLLALVALFVTLTGAQCTTCVAPGPVKARVALTGGALYAVCGLLALVPLCWFANIVVREFYDPTVPVSQKYELGAALYIGWAASALLMCGGGLVCCGAWVCTGRPEFSFPVKYSAPRRPTANGDYDKKNYV

Kd [2]: 0.7 nM
Kd (Rat UNC5B): 0.712 nM
koff (Rat UNC5B): 0.00104 s⁻¹
kon (Rat UNC5B): 1.46e+06 M⁻¹ s⁻¹
Kd (human Unc5B): 0.692 nM
koff (human Unc5B): 0.000993 s⁻¹
kon (human Unc5B): 1.44e+06 M⁻¹ s⁻¹
B2: antibody 1097 (antibody, V domains shown)
VH: EVQLVESGGGLVQPGGSLRLSCAASGFNLYYYSMHWVRQAPGKGLEWVASIYSYSSYTSYADSVKGRFTISADTSKNTAYLQMNSLRAEDTAVYYCARSYAMDYWGQGTLVTVSS
VL: DIQMTQSPSSLSASVGDRVTITCRASQSVSSAVAWYQQKPGKAPKLLIYSASSLYSGVPSRFSGSRSGTDFTLTISSLQPEDFATYYCQQSYGPFTFGQGTKVEIKR

binding result (mouse Unc5B [3]): binds
binding result [4]: binds
B3: antibody 1095 (antibody, human IgG2, kappa, V domains shown)
VH: EVQLVESGGGLVQPGGSLRLSCAASGFNISYSSIHWVRQAPGKGLEWVAYIYPYYGYTYYADSVKGRFTISADTSKNTAYLQMNSLRAEDTAVYYCARGYGIDYWGQGTLVTVSS
VL: DIQMTQSPSSLSASVGDRVTITCRASQSVSSAVAWYQQKPGKAPKLLIYSASSLYSGVPSRFSGSRSGTDFTLTISSLQPEDFATYYCQQHYSLFTFGQGTKVEIKR

binding result (mouse Unc5B [3]): binds
binding result [4]: binds
B4: antibody 1100 (antibody, V domains shown)
VH: EVQLVESGGGLVQPGGSLRLSCAASGFNLYYSSIHWVRQAPGKGLEWVASIYSYSSYTSYADSVKGRFTISADTSKNTAYLQMNSLRAEDTAVYYCARGYAMDYWGQGTLVTVSS
VL: DIQMTQSPSSLSASVGDRVTITCRASQSVSSAVAWYQQKPGKAPKLLIYSASSLYSGVPSRFSGSRSGTDFTLTISSLQPEDFATYYCQQHYGLITFGQGTKVEIKR

binding result [4]: binds
B5: antibody 1101 (antibody, V domains shown)
VH: EVQLVESGGGLVQPGGSLRLSCAASGFNIYYSSMHWVRQAPGKGLEWVAYISSSYGYTYYADSVKGRFTISADTSKNTAYLQMNSLRAEDTAVYYCARGYYAGYFGIDYWGQGTLVTVSS
VL: DIQMTQSPSSLSASVGDRVTITCRASQSVSSAVAWYQQKPGKAPKLLIYSASSLYSGVPSRFSGSRSGTDFTLTISSLQPEDFATYYCQQAGWPITFGQGTKVEIKR

Kd [2]: 1.3 nM
Kd (Rat UNC5B): 1.34 nM
koff (Rat UNC5B): 0.000501 s⁻¹
kon (Rat UNC5B): 375000 M⁻¹ s⁻¹
Kd (human Unc5B): 1.29 nM
koff (human Unc5B): 0.000482 s⁻¹
kon (human Unc5B): 375000 M⁻¹ s⁻¹
B6: anti-Unc5B antibody 1103 (antibody, V domains shown)
VH: EVQLVESGGGLVQPGGSLRLSCAASGFNISYYSIHWVRQAPGKGLEWVASIYSSSGYTSYADSVKGRFTISADTSKNTAYLQMNSLRAEDTAVYYCARGYGLDYWGQGTLVTVSS
VL: DIQMTQSPSSLSASVGDRVTITCRASQSVSSAVAWYQQKPGKAPKLLIYSASSLYSGVPSRFSGSRSGTDFTLTISSLQPEDFATYYCQQHYSYPITFGQGTKVEIKR

binding result (mouse Unc5B [3]): binds
binding result [4]: binds
B7: antibody 1098 (antibody, V domains shown)
VH: EVQLVESGGGLVQPGGSLRLSCAASGFNIYYSYMHWVRQAPGKGLEWVASIYSYSSYTSYADSVKGRFTISADTSKNTAYLQMNSLRAEDTAVYYCARHYAMDYWGQGTLVTVSS
VL: DIQMTQSPSSLSASVGDRVTITCRASQSVSSAVAWYQQKPGKAPKLLIYSASSLYSGVPSRFSGSRSGTDFTLTISSLQPEDFATYYCQQSYSPFTFGQGTKVEIKR

binding result (mouse Unc5B [3]): binds
binding result [4]: binds
B8: antibody 1096 (antibody, V domains shown)
VH: EVQLVESGGGLVQPGGSLRLSCAASGFNLYYSSIHWVRQAPGKGLEWVASIYSYSSYTSYADSVKGRFTISADTSKNTAYLQMNSLRAEDTAVYYCARSYAMDYWGQGTLVTVSS
VL: DIQMTQSPSSLSASVGDRVTITCRASQSVSSAVAWYQQKPGKAPKLLIYSASSLYSGVPSRFSGSRSGTDFTLTISSLQPEDFATYYCQQGFAPFTFGQGTKVEIKR

binding result [4]: binds
B9: antibody 1099 (antibody, V domains shown)
VH: EVQLVESGGGLVQPGGSLRLSCAASGFNLYYYSIHWVRQAPGKGLEWVASIYPYSSYTSYADSVKGRFTISADTSKNTAYLQMNSLRAEDTAVYYCARGYAFNYWGQGTLVTVSS
VL: DIQMTQSPSSLSASVGDRVTITCRASQSVSSAVAWYQQKPGKAPKLLIYSASSLYSGVPSRFSGSRSGTDFTLTISSLQPEDFATYYCQQHYALFTFGQGTKVEIKR

binding result [4]: binds
B10: antibody 1102 (antibody, V domains shown)
VH: EVQLVESGGGLVQPGGSLRLSCAASGFNIYYSSMHWVRQAPGKGLEWVASIYSYSSYTSYADSVKGRFTISADTSKNTAYLQMNSLRAEDTAVYYCARSFAMDYWGQGTLVTVSS
VL: DIQMTQSPSSLSASVGDRVTITCRASQSVSSAVAWYQQKPGKAPKLLIYSASSLYSGVPSRFSGSRSGTDFTLTISSLQPEDFATYYCQQAYSPFTFGQGTKVEIKR
